Patent US10793872B2, “HPPD variants and methods of use” (Bayer CropScience AG, priority 2012, dated 2020)
Changes are numbered by the printed parent chain. Where two headings read alike, the source gives them in different places.

Assays:
[1] = target: T1, Pseudomonas fluorescens HPPD variant CO210d10, SEQ ID NO:9 (Pseudomonas sp., UniProt P80064, E334P/G335S/K338T); test: biochemical; details: read-out: pI50 (converted)
T1 construct: CO210d10; […]; Ala + His6 directly after the start Met (N); made in house; host or cells: E. coli

[2] = target: T2, Pseudomonas fluorescens HPPD variant CO212f3, SEQ ID NO:10 (Pseudomonas sp., UniProt P80064, A339V/E334G/G335W); test: biochemical; details: read-out: pI50 (converted)
T2 construct: CO212f3; […]; Ala + His6 directly after the start Met (N); made in house; host or cells: E. coli

[3] = target: Pseudomonas aeruginosa (strain ATX22717) HPPD Axmi305H, native, SEQ ID NO:57 (Pseudomonas aeruginosa, UniProt Q9I576); test: HPPD coupling assay, Axmi305H
[4] = target: T3, Pseudomonas fluorescens HPPD variant C024H11, SEQ ID NO:5 (Pseudomonas sp., UniProt P80064, G335W/P214L); test: biochemical
T3 construct: C024H11; […]; made in house; host or cells: E. coli (DH5alpha for library screening)

[5] = target: T2, Pseudomonas fluorescens HPPD variant CO212f3, SEQ ID NO:10; test: biochemical
[6] = target: T4, Pseudomonas fluorescens HPPD variant PfHPPDEvo36 (serine for glutamic acid at 335, serine for tryptophan at 336, threonine for lysine at 339, glutamine for alan (Pseudomonas sp., UniProt P80064, A339Q/E334S/G335S/K338T)); format: biochemical
T4 construct: made in house; host or cells: E. coli (DH5alpha for library screening)
Protocol: The theoretical diversity of this library was 640. Screening was carried out as described in Example 3.

[7] = target: Pseudomonas fluorescens HPPD variant PfHPPDEvo40, SEQ ID NO:8 (Pseudomonas sp., UniProt P80064, A339E/E334P/G335S); test: HPPD inhibition, HPLC based assay, PfHPPDEvo40
[8] = target: T5, Pseudomonas fluorescens HPPD variant PfHPPDEvo36 (serine for glutamic acid at 335, serine for tryptophan at 336, threonine for lysine at 339, glutamine for alanine at 340 relative to PfG336W), SEQ ID NO:7 (Pseudomonas sp., UniProt P80064, A339Q/E334S/G335S/K338T); test: biochemical
T5 construct: made in house; host or cells: E. coli (DH5alpha for library screening)

[9] = target: Pseudomonas aeruginosa HPPD Axmi305H (SEQ ID NO:57) variant Axmi305H-Evo41 (Pseudomonas aeruginosa, UniProt Q9I576, A342Q/E337P/G338W/K341A); test: biochemical
Protocol: This method is called the HGD assay.
The mutants generated by this approach were transformed into B121-DE3* cells and grown to saturation in LB media. […] By this method, active HPPD enzyme will produce a brown pigment after approximately 24 hours of growth on plates.

[10] = system: HPPD; details: reaction stopped after 24 min
Protocol: Kon=K1 equals the association rate constant of the […] and Koff=K−1 equals the rate constant of the enzyme-inhibitor complex dissociation. Ki defines the inhibition constant. For the determination of the specific activity of the enzymes, samples were incubated, and the reaction was stopped after 24 min. The specific activity was estimated by μg of protein.
For the determination of the specific activity of the enzymes, samples were incubated, and the reaction was stopped after 24 min. The specific activity was estimated by μg of protein.
Samples were incubated, and the reaction was stopped after 24 min. The specific activity was estimated by μg of protein.

[11] = system: E. coli cells expressing HPPDs; test: Plating whole E. coli cells expressing HPPDs on media containing HPPD inhibitors; format: cell-based; details: whole E. coli cells on plates with 250 uM inhibitor, 18 hours at 37 degrees C
Protocol: Variants were also tested by plating whole E. coli cells expressing HPPDs on media containing various HPPD inhibitors. For these experiments, DH5alpha cells containing HPPD expressing plasmids were grown in LB media+kanamycin until an OD600 nm=0.5 was reached. Serial dilutions of cells were prepared in LB media+kanamycin corresponding to OD600 values of 0.016, 0.008, 0.004, and 0.002. Ten microliters of each dilution were plated in triplicate on plates containing no HPPD inhibitor, 250 uM TBT, 250 uM DKN and 250 uM mesotrione (MST). Plates were incubated for 18 hours at 37 degrees C.

[12] = system: Soybean plants; test: Spray test of soybean plants expressing HPPD for tolerance to tembotrione; format: in vivo; details: tembotrione (LAUDIS SC) 184 grams/hectare, one week after spraying; for Number of plants rated +: + = completely bleached; for Number of plants rated ++ or +++: slight tolerance or very little effect
Protocol: Soybean plants expressing an HPPD inhibitor tolerant enzyme of the present invention, along with a gene conferring tolerance to glyphosate and a gene conferring tolerance to glufosinate, were tested for tolerance to tembotrione. A DeVries Tracker Sprayer was calibrated prior to each spraying. The chemical formulation used for tembotrione testing was LAUDIS® SC formulation. Spray tests were conducted using 184 grams/hectare; 34.5% TBT. Tolerance was evaluated one week after spraying. A rating of “+” was assigned to plants that were completely bleached in the actively growing tissue. A rating of “++” was assigned to plants having slight tolerance, i.e., the newest plant tissues had some green and are not bleached completely. A rating of “+++” was assigned to plants showing very little effect from spray, i.e., some chlorosis or very slight bleaching was present.

[13] = system: Soybean plants; test: Field trials of soybean events expressing HPPD, post-emergent HPPD inhibitor application, phytotoxicity; format: in vivo; details: for events exhibiting less than or equal to 20% average phytotoxicity: T1 events, evaluated after 7 days; for events exhibiting less than or equal to 20% average phytotoxicity / events exhibiting less than or equal to 25% maximum phytotoxicity: post-emergent tembotrione 200 g ai/ha; for events exhibiting less than or equal to 25% maximum phytotoxicity: field trial United States (Minnesota); for events exhibiting less than or equal to 25% maximum phytotoxicity / events exhibiting less than or equal to 18% maximum phytotoxicity: T2; for events exhibiting less than or equal to 18% maximum phytotoxicity: field trial in Argentina, post-emergent isoxaflutole 210 g ai/ha
Description: The plants were sprayed at the v2-v3 stage with 1× glufosinate. Five days after treatment with glufosinate, the surviving plants were sprayed with 2× tembotrione, 2× mesotrione, or 2× isoxaflutole and evaluated for phytotoxicity after 7 days.

[14] = system: HPPD
Protocol: For Km and Vmax value determinations the initial rates of the HPPD reaction at different substrate concentrations were determined from plots of HGA formed versus time and fitted to the Michaelis-Menten equation for unireactant enzymes using the ID Business Solutions Ltd. (www.idbs.com) XLfit software suite.
In below given Table 1, “Km” (Michaelis-Menten constant) means the kinetic parameter that is used to characterize an enzyme, and it is defined as the concentration of substrate that permits half maximal rate of the reaction. Km is further defined as the substrate concentration at which the reaction rate reaches half of its maximum value (Vmax/2) where Vmax has the meaning of being the maximum velocity of the reaction.

[15] = system: HPPD; details: Table 14
[16] = PfHPPDEvo36 extract titrated on 250 uM inhibitor
[17] = spectrophotometric method, Table 6

T4 sequence (P80064 other isoform, or with tags, fused parts or gaps with the stated changes): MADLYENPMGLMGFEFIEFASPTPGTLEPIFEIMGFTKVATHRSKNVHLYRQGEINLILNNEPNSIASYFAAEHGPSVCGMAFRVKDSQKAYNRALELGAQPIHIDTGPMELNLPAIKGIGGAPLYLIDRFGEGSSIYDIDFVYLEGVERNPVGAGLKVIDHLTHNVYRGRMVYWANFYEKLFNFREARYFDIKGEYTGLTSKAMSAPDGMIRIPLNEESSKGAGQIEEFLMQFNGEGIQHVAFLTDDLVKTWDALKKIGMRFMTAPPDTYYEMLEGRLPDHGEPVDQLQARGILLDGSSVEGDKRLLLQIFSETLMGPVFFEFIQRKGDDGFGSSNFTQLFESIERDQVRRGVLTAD
T2 sequence (P80064 other isoform, or with tags, fused parts or gaps with the stated changes): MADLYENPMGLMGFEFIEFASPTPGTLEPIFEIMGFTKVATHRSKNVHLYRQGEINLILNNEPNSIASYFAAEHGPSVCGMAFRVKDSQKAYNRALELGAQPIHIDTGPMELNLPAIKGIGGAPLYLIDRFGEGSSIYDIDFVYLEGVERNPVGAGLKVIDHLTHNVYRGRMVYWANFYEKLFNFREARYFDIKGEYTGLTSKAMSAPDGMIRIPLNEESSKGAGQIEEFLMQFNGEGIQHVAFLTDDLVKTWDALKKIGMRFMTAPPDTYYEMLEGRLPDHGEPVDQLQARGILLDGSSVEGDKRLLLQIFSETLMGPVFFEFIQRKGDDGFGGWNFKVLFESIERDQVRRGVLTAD
T3 sequence (P80064 other isoform, or with tags, fused parts or gaps with the stated changes): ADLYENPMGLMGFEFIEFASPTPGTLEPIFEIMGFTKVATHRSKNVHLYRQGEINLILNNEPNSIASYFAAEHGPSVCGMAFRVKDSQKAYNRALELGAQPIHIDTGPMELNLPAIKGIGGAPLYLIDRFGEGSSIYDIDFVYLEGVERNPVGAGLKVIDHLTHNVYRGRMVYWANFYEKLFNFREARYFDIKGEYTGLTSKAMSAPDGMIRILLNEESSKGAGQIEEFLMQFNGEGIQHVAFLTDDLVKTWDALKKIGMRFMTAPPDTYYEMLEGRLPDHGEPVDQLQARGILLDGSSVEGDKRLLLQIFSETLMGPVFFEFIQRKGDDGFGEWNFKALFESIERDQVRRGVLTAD
T1 sequence (P80064 other isoform, or with tags, fused parts or gaps with the stated changes): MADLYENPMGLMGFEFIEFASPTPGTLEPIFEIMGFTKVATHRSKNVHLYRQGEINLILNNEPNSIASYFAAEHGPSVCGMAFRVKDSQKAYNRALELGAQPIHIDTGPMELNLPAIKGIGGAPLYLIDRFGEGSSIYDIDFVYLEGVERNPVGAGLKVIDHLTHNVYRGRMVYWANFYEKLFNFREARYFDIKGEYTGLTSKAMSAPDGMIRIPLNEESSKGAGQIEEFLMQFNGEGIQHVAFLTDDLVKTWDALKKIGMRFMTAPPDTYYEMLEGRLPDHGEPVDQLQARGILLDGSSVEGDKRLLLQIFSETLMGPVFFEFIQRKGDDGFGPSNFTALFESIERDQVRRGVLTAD
Chain of Pseudomonas aeruginosa (strain ATX22717) HPPD Axmi305H, native, SEQ ID NO:57 (Q9I576 whole entry): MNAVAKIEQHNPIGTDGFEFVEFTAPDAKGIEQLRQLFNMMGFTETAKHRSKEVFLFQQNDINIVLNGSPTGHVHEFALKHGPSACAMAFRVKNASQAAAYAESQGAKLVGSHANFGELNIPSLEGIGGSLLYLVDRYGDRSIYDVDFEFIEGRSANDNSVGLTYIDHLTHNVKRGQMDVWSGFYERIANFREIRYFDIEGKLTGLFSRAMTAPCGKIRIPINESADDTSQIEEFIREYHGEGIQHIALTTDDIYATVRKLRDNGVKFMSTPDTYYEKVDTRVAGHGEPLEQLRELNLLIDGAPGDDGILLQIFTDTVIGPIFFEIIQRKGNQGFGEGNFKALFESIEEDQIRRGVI
Chain of Pseudomonas aeruginosa HPPD Axmi305H (SEQ ID NO:57) variant Axmi305H-Evo41 (Q9I576 whole entry E337P/G338W/K341A/A342Q): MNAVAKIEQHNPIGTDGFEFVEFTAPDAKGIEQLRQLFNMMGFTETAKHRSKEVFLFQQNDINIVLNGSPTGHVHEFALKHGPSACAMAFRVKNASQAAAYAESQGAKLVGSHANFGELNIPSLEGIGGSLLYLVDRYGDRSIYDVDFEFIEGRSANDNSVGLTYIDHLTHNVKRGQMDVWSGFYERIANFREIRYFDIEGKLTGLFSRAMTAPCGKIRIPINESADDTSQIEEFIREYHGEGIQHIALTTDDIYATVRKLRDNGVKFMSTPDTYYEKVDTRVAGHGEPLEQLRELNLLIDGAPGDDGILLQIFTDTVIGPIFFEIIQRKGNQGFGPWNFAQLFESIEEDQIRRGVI

## CS(=O)(=O)c1ccc(C(=O)C2C(=O)CCCC2=O)c([N+](=O)[O-])c1 [Mesotrione, 2-[4-(methylsulfonyl)-2-nitrobenzoyl]-1,3-cyclohexanedione]
[1]
  IC50: 2 µM
[2]
  IC50: 3.98 µM
[3]
  IC50: 0.2 µM

## CS(=O)(=O)c1ccc(C(=O)C2C(=O)CCCC2=O)c(Cl)c1COCC(F)(F)F [Tembotrione, 2-[2-chloro-4-(methylsulfonyl)-3-[(2,2,2,-tri-fluoroethoxy)methyl]benzoyl]-1,3-cyclo-hexanedione]
[4]
  IC50: 15.8 µM
[5]
  IC50: 15.8 µM
[6]; [16]
  improved tolerance compared to PfG336W: 16 ×
  improved tolerance compared to PfHPPDEvo33: 4 ×
[7]
  IC50: 10 µM

## CS(=O)(=O)c1cc(C(F)(F)F)ccc1C(=O)C(C#N)C(=O)C1CC1 (centres unmarked) [Diketonitrile, 2-cyano-3-cyclopropyl-1-(2-methylsulphonyl-4-trifluoromethylphenyl)-propane-1,3-dione]
[8]
  IC50: 31.6 µM
[1]
  IC50: 50.1 µM
[2]
  IC50: 20 µM
[4]
  IC50: 100 µM
[6]
  improved tolerance compared to PfG336W: 16 ×
  improved tolerance compared to PfHPPDEvo33: 4 ×
[9]
  IC50: 10 µM

B1: PfHPPDEvo40: HPPD variant SEQ ID NO:8 (protein)
chain: MADLYENPMGLMGFEFIEFASPTPGTLEPIFEIMGFTKVATHRSKNVHLYRQGEINLILNNEPNSIASYFAAEHGPSVCGMAFRVKDSQKAYNRALELGAQPIHIDTGPMELNLPAIKGIGGAPLYLIDRFGEGSSIYDIDFVYLEGVERNPVGAGLKVIDHLTHNVYRGRMVYWANFYEKLFNFREARYFDIKGEYTGLTSKAMSAPDGMIRIPLNEESSKGAGQIEEFLMQFNGEGIQHVAFLTDDLVKTWDALKKIGMRFMTAPPDTYYEMLEGRLPDHGEPVDQLQARGILLDGSSVEGDKRLLLQIFSETLMGPVFFEFIQRKGDDGFGPSNFKELFESIERDQVRRGVLTAD
modifications: HPPD mutant - PfHPPDEvo40
[10]; [17]
  Specific activity: 0.42 Delta Absorbance/24 min/μg pro
[11]
  tolerance to TBT and MST compared to PfG336W: improved tolerance
[12]
  Percent ++ or +++: 31.4%
  Number of plants rated +: 60
  Number of plants rated ++ or +++: 65

B2: PfG336W: Pseudomonas fluorescens HPPD mutant, glycine at position 336 replaced by tryptophan, SEQ ID NO:2 (protein)
chain: B1 chain with P335E, S336W, E340A
modifications: HPPD mutant - PfG336W
[10]; Table 1
  Specific activity: 0.40 ΔE/24 min μg Protein
[10]; [17]
  Specific activity: 0.4 Delta Absorbance/24 min/μg pro
[12]
  Percent ++ or +++: 7.12%
  Number of plants rated +: 811
  Number of plants rated ++ or +++: 160
[13]
  events exhibiting less than or equal to 20% average phytotoxicity: 0 out of 18
  events exhibiting less than or equal to 25% maximum phytotoxicity: 1 out of 11
  events exhibiting less than or equal to 18% maximum phytotoxicity: 1 out of 3

B3: PfHPPDEvo36: HPPD variant SEQ ID NO:7; 335 serine, 336 serine, 339 threonine, 340 glutamine relative to PfG336W (protein)
chain: B1 chain with P335S, K339T, E340Q
modifications: HPPD mutant - PfHPPDEvo36
[10]; [17]
  Specific activity: 0.82 Delta Absorbance/24 min/μg pro
[12]
  Percent ++ or +++: 20.45%
  Number of plants rated +: 47
  Number of plants rated ++ or +++: 18

B4: PfHPPDEvo41: HPPD variant SEQ ID NO:16 (protein)
chain: B1 chain with S336W, K339A, E340Q
modifications: HPPD mutant - PfHPPDEvo41
[14]; Table 9, same values as Table 5
  Km: 336 µM
[14]; read-out: HPP Km, substrate HPP, Table 5
  Km: 336 µM
[14]; substrate HPP, Table 5
  HPP Kcat: 1.1 s⁻¹
[10]; [17]
  Specific activity: 0.44 Delta Absorbance/24 min/μg pro
[11]
  tolerance to TBT and MST compared to PfG336W: improved tolerance
[12]
  Percent ++ or +++: 32.75%
  Number of plants rated +: 412
  Number of plants rated ++ or +++: 279
[13]
  events exhibiting less than or equal to 20% average phytotoxicity: Nine out of 18
  events exhibiting less than or equal to 25% maximum phytotoxicity: 7 out of 7
  events exhibiting less than or equal to 18% maximum phytotoxicity: 5 out of 10
[15]
  Km: 336 µM
